This is an account of results in patent publication US20260234282A1 (VIB VZW, published 2026).

In test [1] the target is T1, recombinant human CD163 protein (hCD163-Avi-His6, U-Protein Express BV) (human, UniProt Q86VB7 42-1050, limits assumed, site-specifically biotinylated on the Avi tag in the ELISA format).
T1 construct: Bought recombinant protein; also called hCD163 protein; recombinant hCD163; not shown: Avi tag and His6 tag
Nature of the test: ELISA-format binding to hCD163-Avi-His6, bound radioactivity by gamma counter (FIG. 9A); radiolabeled; recombinant hCD163 protein (FIG. 9A). An excerpt: (§1) FIG. 9. Determination of single domain antibody binding affinities after NOTA-conjugation via ELISA and a cell-binding study. (A) Binding of different concentrations of the ⁶⁸Gallium-labeled anti-CD163 single domain antibody (“[⁶⁸Ga]Ga-NOTA-anti-CD163 Nb”) to the human CD163-Avi-Hexahistine protein, compared to binding of a control irrelevant ⁶⁸Gallium-labeled single domain antibody (“[⁶⁸Ga]Ga-NOTA-Irr Nb”) (B) Single domain antibody binding of different concentrations of the […] anti-CD163 single domain antibody to HEK293T cells overexpressing mouse CD163.
(§2) Affinity determination of the [⁶⁸Ga]Ga-NOTA-anti-CD163 sdAb via ELISA was performed as described in the previous paragraph. The radioactive sdAb binding on the hCD163-Avi-His6 protein was measured via a γ-counter.
A general note: An ELISA detects its analyte on a solid surface through an enzyme-linked reagent.

In test [2] the target is T1, recombinant human CD163 protein …. Briefly: ELISA-format binding of radiolabeled sdAb to human CD163-Avi-His6 protein, read by gamma-counter.
Text: as §1, §2

For test [3], the target named is T2, human CD163 on HEK293T cells overexpressing hCD163 (human, UniProt Q86VB7 42-1156).
T2 construct: whole, on cells; also called HEK hCD163+ cells; HEK293T hCD163+ cells
Nature of the test: flow cytometry on HEK293T hCD163+ cells. An excerpt: FIG. 2. Binding of the CD163-targeting single domain antibody (23766) to HEK293T cells overexpressing the hCD163 or mCD163 protein. A) Binding of different concentrations of the CD163-specific single domain antibody 23766 or an irrelevant single domain antibody (“Irr Nb”; R3b23) to HEK293T cells overexpressing (A), hCD163 or (B) mCD163 protein. Binding was detected as mean fluorescent intensity (MFI) via the C-terminal His-tag and a fluorescent labeled anti-His antibody using flow cytometry.
Serial dilutions of the CD163-targeting sdAb and of the NOTA-conjugated anti-CD163 sdAb were incubated with 500.000 HEK293T cells overexpressing hCD163 or mCD163 in FACS buffer (HBSS (Gibco) supplemented with 1% FBS and 2 mM EDTA (Duchefa Biochemie, Haarlem, The Netherlands)) for 1 h at 4° C. NOTA-sdAb binding was detected by incubation of the cells with a PE tagged anti-VHH Ab (1:500 in FACS buffer, Genscript, Piscataway, NJ, USA) for 30 min at 4° C. […] Next, sdAb binding was detected by incubation of the cells with an Alexa Fluor®-488 tagged anti-HA antibody (1:1000 in FACS buffer, clone 16B12, Biolegend, San Diego, CA, USA) for 30 min at 4° C. Again, cells were washed once with FACS buffer. sdAb binding was determined using the FACS CANTO II analyser (BD Biosciences, Franklin Lakes, NJ, USA). The mean fluorescent intensity of sdAb binding was determined using FlowJo version 10.
(In flow cytometry, cells or beads pass a laser one at a time.)

The target of test [4] is T1, recombinant human CD163 protein …. Briefly: SPR (Biacore T200), recombinant hCD163 protein. How it is done: (§3) The affinity of purified CD163-targeting sdAb and of the NOTA-conjugated anti-CD163 sdAb to recombinant hCD163 and mCD163 protein (U-Protein Express BV) was determined using the BIACORE-T200 (GE Healthcare, Freiburg, Germany). Surface plasmon resonance measurements were performed at 25° C. with HEPES buffered saline (HBS, 20 mM of HEPES pH 7.4, 150 mM of NaCl, 3.4 mM of EDTA 0.05% Tween-20) running buffer. The sdAbs were injected consecutively in 2-fold serial dilutions, from 250 to 1 nM. The association step was 100 s, the dissociation step was 200 s, and the two-step regeneration of 35 s at 30 μL·min-1, using 100 mM glycine at pH 3.0, was performed. Local curve fitting analysis was performed using the BIACORE evaluation software (GE Healthcare) by fitting the obtained sensorgrams to theoretical curves, assuming 1-1 binding geometries. For the determination of the equilibrium dissociation constant, the ratio of the association and dissociation rate constants were determined.
For orientation: SPR reads the build-up and loss of mass on a sensor chip optically.

The target of test [5] is T2, human CD163 on HEK293T cells …. Nature of the test: flow cytometry on HEK293T hCD163+ cells; mean ± S.D. of at least 3 independent experiments. How it is done:
Serial dilutions of the CD163-targeting sdAb and of the NOTA-conjugated anti-CD163 sdAb were incubated with 500.000 HEK293T cells overexpressing hCD163 or mCD163 in FACS buffer (HBSS (Gibco) supplemented with 1% FBS and 2 mM EDTA (Duchefa Biochemie, Haarlem, The Netherlands)) for 1 h at 4° C. NOTA-sdAb binding was detected by incubation of the cells with a PE tagged anti-VHH Ab (1:500 in FACS buffer, Genscript, Piscataway, NJ, USA) for 30 min at 4° C. Cells were washed once with FACS buffer. Next, sdAb binding was detected by incubation of the cells with an Alexa Fluor®-488 tagged anti-HA antibody (1:1000 in FACS buffer, clone 16B12, Biolegend, San Diego, CA, USA) for 30 min at 4° C. Again, cells were washed once with FACS buffer. sdAb binding was determined using the FACS CANTO II analyser (BD Biosciences, Franklin Lakes, NJ, USA). The mean fluorescent intensity of sdAb binding was determined using FlowJo version 10.

Test [6] has as its target T1, recombinant human CD163 protein …. Nature of the test: SPR, recombinant hCD163 protein; mean ± S.D. of at least 3 independent experiments; mean ± S.D of at least 3 independent experiments (Table 1B), not the single value of Table 1A. How it is done: as §3
The target is the same in test [7]. Nature of the test: binding to recombinant hCD163 protein (SPR per paragraph 101); NOTA-conjugated, not radiolabeled; recombinant hCD163 protein. Here is the method: as §3

T1 sequence (Q86VB7 42-1050 limits assumed): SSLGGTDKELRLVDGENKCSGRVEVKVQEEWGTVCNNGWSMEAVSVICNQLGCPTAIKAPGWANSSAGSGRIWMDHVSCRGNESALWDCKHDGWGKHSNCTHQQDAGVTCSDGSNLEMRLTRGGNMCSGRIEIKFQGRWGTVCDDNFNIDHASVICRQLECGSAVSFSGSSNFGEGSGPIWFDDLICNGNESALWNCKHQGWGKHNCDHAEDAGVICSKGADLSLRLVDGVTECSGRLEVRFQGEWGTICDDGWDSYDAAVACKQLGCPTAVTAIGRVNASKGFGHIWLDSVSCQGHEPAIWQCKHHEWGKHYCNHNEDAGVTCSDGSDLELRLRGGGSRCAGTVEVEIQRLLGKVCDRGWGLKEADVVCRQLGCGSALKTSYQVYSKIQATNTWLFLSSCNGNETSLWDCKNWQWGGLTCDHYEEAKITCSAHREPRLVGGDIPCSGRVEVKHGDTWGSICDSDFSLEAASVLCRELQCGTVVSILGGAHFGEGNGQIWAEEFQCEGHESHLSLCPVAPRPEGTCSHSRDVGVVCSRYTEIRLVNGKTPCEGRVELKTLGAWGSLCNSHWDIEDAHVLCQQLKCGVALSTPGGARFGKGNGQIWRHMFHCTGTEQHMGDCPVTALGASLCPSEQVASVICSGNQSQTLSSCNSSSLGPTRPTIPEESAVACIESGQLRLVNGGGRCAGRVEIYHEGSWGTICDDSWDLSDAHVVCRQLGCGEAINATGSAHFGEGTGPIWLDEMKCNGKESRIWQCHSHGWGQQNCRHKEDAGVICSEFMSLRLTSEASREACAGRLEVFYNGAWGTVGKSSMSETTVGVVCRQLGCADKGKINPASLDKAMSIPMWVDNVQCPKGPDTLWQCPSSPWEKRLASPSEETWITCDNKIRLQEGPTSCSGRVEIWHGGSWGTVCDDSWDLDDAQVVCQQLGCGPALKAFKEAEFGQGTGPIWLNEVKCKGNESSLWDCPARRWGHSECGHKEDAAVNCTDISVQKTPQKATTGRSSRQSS
T2 sequence (Q86VB7 42-1156): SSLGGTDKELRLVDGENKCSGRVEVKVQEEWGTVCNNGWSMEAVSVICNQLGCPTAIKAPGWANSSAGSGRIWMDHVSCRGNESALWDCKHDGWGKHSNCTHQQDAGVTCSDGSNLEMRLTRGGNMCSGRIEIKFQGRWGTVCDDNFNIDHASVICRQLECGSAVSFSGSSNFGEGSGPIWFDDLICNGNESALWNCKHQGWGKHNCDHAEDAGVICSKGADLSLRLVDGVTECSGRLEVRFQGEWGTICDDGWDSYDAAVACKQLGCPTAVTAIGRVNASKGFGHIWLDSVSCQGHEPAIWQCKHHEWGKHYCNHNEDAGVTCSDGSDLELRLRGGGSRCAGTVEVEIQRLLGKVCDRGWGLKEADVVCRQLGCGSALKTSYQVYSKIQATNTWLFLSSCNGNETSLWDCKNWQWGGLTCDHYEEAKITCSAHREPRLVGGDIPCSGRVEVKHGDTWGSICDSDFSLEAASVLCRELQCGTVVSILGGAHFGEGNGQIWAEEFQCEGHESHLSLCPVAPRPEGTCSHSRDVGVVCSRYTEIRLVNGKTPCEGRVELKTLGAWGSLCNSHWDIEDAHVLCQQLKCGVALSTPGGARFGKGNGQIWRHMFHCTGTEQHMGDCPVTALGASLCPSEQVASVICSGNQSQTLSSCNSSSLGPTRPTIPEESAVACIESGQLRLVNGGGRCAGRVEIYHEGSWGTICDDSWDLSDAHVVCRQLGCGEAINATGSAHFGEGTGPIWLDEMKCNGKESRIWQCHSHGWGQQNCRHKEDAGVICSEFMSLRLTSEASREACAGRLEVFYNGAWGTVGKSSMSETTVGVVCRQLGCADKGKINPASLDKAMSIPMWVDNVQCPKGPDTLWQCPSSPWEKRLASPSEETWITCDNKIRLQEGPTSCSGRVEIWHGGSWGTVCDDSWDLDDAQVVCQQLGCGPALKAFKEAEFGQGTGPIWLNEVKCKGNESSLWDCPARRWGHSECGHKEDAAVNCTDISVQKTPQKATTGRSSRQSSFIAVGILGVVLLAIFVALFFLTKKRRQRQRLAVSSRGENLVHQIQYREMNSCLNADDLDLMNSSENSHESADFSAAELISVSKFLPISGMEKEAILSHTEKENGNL

B1: [68Ga]Ga-NOTA-anti-CD163 single domain antibody (VHH)
VHH: DVQLVESGGGLVQPGGSLRLSCAASGITFSSYAVAWFRQASGKEREFVAFIGWDGDTTYYVDSVKGRFTISRDNAKNMVYLQMNSLKPDDTAIYYCARHKTLWRSSWDNRPVQYDYWGQGTQVTVSS
modifications: p-SCN-Bn-NOTA randomly conjugated to lysines, chelating 68Ga
notes: Radiolabeled form of the NOTA conjugate of the lead anti-CD163 sdAb; also called 68Gallium-labeled anti-CD163 single domain antibody; [68Ga]Ga-NOTA-anti-CD163 Nb
Turning to B1, the dissociation constant (Kd) (usually the concentration at which binding is half-saturated) in test [1] came to 9.11 nM. In addition, in test [2], the EC50 (read off the curve) (usually the concentration that produces a half-maximal response) is about 7 nM.

B2: CD163-targeting single domain antibody 23766 (VHH, not shown: small tags and cut ends)
VHH: DVQLVESGGGLVQPGGSLRLSCAASGITFSSYAVAWFRQASGKEREFVAFIGWDGDTTYYVDSVKGRFTISRDNAKNMVYLQMNSLKPDDTAIYYCARHKTLWRSSWDNRPVQYDYWGQGTQVTVSS
notes: Llama-derived sdAb cloned in the pMECS phage vector; also called sdAb 23766; sdAb23766
B2: the Kd in test [3] is 2.5 nM; in test [4], 3.5 nM; in test [5], 11.3 nM; in test [6], 0.5 nM.

B3: NOTA-conjugated anti-CD163 single domain antibody (VHH)
VHH: DVQLVESGGGLVQPGGSLRLSCAASGITFSSYAVAWFRQASGKEREFVAFIGWDGDTTYYVDSVKGRFTISRDNAKNMVYLQMNSLKPDDTAIYYCARHKTLWRSSWDNRPVQYDYWGQGTQVTVSS
modifications: p-SCN-Bn-NOTA randomly conjugated to lysines; 2.32±0.12 chelator per single domain antibody
notes: The lead anti-CD163 sdAb (23766) conjugated to NOTA; also called NOTA-single domain antibody; NOTA-sdAb
Consider B3, for which the Kd in test [7] turned out to be 1.55 nM.
